Assay results from PMC11358414.

Molecular target: DEP-Venus (DEP domain of Disheveled, DVL) (UniProt O14641)
Assay: NanoBiT-based DEP recruitment BRET assay (BRET titration)
Conditions: HEK293A cells, FLAG-LgBiT-CAAX cotransfected, baseline-corrected …, parent: est. 0.38, read off a plot

Substance	response (value read at the right end of the fitted curve (Venus fluorescence about 23000 arb. units)) [net BRET]	response (value read at the right end of the fitted curve (Venus fluorescence about 27000 arb. units)) [net BRET]
FZD7-SmBiT, wild type (from UniProt O75084) F345A; W386A	0.1	–
FZD7-SmBiT, wild type (from UniProt O75084) F345A; H382A	–	0.08
